Laboratory results published in PMC9482650, “Quantitative fragmentomics allow affinity mapping of interactomes” (Nature Communications, 2022).

Columns and labels:
Experiment in all cases: holdup assay
Design in all cases: key: below the threshold = too weak to quantify, mostly under pKd 3.1 to 4
[1] = target: T1, NHERF3_4, Q5T2W1
T1 sequence (Q5T2W1 373-468, limits assumed, looked up): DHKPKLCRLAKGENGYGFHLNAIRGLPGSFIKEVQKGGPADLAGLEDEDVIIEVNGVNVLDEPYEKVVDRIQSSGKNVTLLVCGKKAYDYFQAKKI

[2] = target: DLG4_2, P78352
Chain of DLG4_2, P78352 (P78352 155-259): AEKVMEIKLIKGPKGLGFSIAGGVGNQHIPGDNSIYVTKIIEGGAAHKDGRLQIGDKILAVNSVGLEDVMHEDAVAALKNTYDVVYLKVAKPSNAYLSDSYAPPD

[3] = target: TJP1_2, Q07157
Chain of TJP1_2, Q07157 (Q07157 181-274): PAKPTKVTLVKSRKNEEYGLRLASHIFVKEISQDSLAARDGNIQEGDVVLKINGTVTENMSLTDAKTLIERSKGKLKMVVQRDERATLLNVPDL

[4] = target: T2, DLG3_2, Q92796
T2 sequence (Q92796 221-321, limits assumed, looked up): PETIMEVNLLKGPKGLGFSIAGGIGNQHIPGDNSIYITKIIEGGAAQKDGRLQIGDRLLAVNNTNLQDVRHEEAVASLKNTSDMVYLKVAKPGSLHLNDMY

[5] = target: T3, RHPN1, Q8TCX5
T3 sequence (Q8TCX5 508-602, limits assumed, looked up): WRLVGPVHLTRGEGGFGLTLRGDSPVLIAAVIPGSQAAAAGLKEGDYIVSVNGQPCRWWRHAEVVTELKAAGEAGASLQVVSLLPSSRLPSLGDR

[6] = target: T4, MPP2, Q14168
T4 sequence (Q14168 180-250, limits assumed, looked up): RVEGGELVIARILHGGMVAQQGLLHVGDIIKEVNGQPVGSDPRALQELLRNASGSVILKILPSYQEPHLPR

[7] = target: T5, SHANK1, Q9Y566
T5 sequence (Q9Y566 658-767, limits assumed, looked up): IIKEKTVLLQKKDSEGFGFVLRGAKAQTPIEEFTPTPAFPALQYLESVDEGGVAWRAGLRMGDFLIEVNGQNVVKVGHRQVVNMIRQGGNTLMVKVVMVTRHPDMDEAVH

[8] = target: MAGI1_2, Q96QZ7
Chain of MAGI1_2, Q96QZ7 (Q96QZ7 456-580): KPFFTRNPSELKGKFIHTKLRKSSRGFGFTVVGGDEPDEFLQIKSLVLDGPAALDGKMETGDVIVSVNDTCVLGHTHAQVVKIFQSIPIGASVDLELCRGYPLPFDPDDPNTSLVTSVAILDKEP

[9] = target: FRMPD3, Q5JV73
Chain of FRMPD3, Q5JV73 (Q5JV73 12-100): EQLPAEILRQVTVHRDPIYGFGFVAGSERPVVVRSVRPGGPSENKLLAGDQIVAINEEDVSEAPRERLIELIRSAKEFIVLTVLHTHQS

[10] = target: GORASP2, Q9H8Y8
[11] = target: SCRIB_1, Q14160
Chain of SCRIB_1, Q14160 (Q14160 718-814): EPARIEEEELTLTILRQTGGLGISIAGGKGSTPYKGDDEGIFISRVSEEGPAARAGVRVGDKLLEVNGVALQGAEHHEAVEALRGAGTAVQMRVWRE

[12] = target: MAGI2_3, Q86UL8
Chain of MAGI2_3, Q86UL8 (Q86UL8 600-682): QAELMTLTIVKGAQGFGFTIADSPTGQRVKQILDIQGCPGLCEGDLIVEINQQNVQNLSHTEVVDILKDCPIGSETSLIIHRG

[13] = target: PTPN3, P26045
Chain of PTPN3, P26045 (P26045 505-587): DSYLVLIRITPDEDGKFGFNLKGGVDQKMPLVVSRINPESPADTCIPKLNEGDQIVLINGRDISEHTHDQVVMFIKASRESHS

[14] = target: T6, SYNJ2BP, P57105
T6 sequence (P57105 8-110, limits assumed, looked up): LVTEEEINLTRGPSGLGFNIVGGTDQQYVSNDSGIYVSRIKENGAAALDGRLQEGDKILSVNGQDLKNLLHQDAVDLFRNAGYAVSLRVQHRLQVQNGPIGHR

[15] = target: T7, LIN7C, Q9NUP9
T7 sequence (Q9NUP9 88-185, limits assumed, looked up): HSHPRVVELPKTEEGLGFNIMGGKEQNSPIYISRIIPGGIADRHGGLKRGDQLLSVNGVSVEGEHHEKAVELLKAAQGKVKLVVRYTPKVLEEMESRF

[16] = target: T8, LNX2_2, Q8N448
T8 sequence (Q8N448 334-432, limits assumed, looked up): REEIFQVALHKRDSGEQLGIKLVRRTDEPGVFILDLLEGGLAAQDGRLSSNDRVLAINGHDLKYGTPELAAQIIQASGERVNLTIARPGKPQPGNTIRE

[17] = target: NHERF4_2, Q86UT5
Chain of NHERF4_2, Q86UT5 (Q86UT5 220-308): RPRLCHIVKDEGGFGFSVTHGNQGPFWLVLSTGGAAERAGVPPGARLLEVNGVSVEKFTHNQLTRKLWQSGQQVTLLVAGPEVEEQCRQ

[18] = target: GORASP1, Q9BQQ3
Chain of GORASP1, Q9BQQ3 (Q9BQQ3 1-208): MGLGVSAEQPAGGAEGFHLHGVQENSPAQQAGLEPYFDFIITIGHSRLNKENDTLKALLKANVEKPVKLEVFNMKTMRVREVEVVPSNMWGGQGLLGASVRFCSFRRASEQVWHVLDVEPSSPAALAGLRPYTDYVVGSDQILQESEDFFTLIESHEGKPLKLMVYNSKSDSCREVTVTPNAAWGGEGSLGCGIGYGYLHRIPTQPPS

[19] = target: LNX1_1, Q8TBB1
Chain of LNX1_1, Q8TBB1 (Q8TBB1 261-371): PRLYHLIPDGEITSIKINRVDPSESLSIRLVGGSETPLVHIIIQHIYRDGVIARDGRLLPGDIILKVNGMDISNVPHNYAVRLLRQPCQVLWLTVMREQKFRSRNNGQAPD

[20] = target: T9, SNTG1, Q9NSN8
T9 sequence (Q9NSN8 52-150, limits assumed, looked up): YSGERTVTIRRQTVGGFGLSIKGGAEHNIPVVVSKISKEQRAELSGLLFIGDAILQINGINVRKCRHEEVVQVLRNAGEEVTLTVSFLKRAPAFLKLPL

[21] = target: NHERF2_2, Q15599
Chain of NHERF2_2, Q15599 (Q15599 142-238): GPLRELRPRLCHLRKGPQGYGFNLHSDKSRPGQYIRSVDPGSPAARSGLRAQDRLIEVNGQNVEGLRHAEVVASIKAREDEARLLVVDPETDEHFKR

[22] = target: DLG4_1, P78352
Chain of DLG4_1, P78352 (P78352 62-152): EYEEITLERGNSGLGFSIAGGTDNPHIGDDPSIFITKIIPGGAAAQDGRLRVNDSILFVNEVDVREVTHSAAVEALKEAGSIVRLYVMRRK

[23] = target: PDZRN4_1, Q6ZMN7
Chain of PDZRN4_1, Q6ZMN7 (Q6ZMN7 213-318): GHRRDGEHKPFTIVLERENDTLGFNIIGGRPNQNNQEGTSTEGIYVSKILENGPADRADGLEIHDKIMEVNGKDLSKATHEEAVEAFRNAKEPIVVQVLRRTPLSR

[24] = target: T10, DFNB31_3, Q9P202
T10 sequence (Q9P202 811-907, limits assumed, looked up): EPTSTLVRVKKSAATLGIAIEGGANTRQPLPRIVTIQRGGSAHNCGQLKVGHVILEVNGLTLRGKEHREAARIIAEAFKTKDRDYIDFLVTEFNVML

[25] = target: MAST1, Q9Y2H9
Chain of MAST1, Q9Y2H9 (Q9Y2H9 962-1065): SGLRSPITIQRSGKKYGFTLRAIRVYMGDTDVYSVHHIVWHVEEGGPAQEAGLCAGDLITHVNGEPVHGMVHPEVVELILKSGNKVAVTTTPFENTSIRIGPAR

[26] = target: T11, NHERF3_1, Q5T2W1
T11 sequence (Q5T2W1 4-100, limits assumed, looked up): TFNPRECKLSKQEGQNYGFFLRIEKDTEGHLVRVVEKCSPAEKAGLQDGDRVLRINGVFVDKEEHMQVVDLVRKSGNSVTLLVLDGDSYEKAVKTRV

[27] = target: Inadl_8, Q8NI35
Chain of Inadl_8, Q8NI35 (Q8NI35 1425-1530): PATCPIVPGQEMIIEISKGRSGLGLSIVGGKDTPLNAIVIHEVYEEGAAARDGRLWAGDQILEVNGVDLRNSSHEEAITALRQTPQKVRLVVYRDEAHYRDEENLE

[28] = plain residues with an end cap or a label only (N-terminal biotin on a linker: ttds)
[29] = plain residues with an end cap or a label only (N-terminal biotin on a linker: none)

Binder: SGSRPSATVV [HPV73-E6, Q82005]
- pKd [1, 28]: 3.6
- pKd [2, 28]: 4.14
- pKd [3, 28]: below the threshold
- pKd [4, 28]: 4.11
- pKd [5, 28]: below the threshold
- pKd [6, 28]: below the threshold
- pKd [7, 28]: below the threshold
- pKd [8, 28]: 4.15
- pKd [9, 28]: below the threshold
- pKd [10, 28]: 4.13
- pKd [11, 28]: below the threshold
- pKd [12, 28]: 3.62
- pKd [13, 28]: below the threshold
- pKd [14, 28]: 3.71
- pKd [15, 28]: 3.81
- pKd [16, 28]: 4.98
- pKd [17, 28]: below the threshold
- pKd [18, 28]: 4.19
- pKd [19, 28]: 3.74
- pKd [20, 28]: 3.6
- pKd [21, 28]: below the threshold
- pKd [22, 28]: 3.97
- pKd [23, 28]: below the threshold
- pKd [24, 28]: below the threshold
- pKd [25, 28]: 3.73
- pKd [26, 28]: below the threshold
- pKd [27, 28]: 3.53

Binder: NLNSSRVPDLLV [SARS-CoV2-E, P0DTC4]
- pKd [1, 29]: below the threshold
- pKd [2, 29]: below the threshold
- pKd [3, 29]: 5.52
- pKd [4, 29]: below the threshold
- pKd [5, 29]: below the threshold
- pKd [6, 29]: below the threshold
- pKd [7, 29]: below the threshold
- pKd [8, 29]: below the threshold
- pKd [9, 29]: below the threshold
- pKd [10, 29]: below the threshold
- pKd [11, 29]: below the threshold
- pKd [12, 29]: below the threshold
- pKd [13, 29]: below the threshold
- pKd [14, 29]: below the threshold
- pKd [15, 29]: below the threshold
- pKd [16, 29]: 4.46
- pKd [17, 29]: below the threshold
- pKd [18, 29]: 3.6
- pKd [19, 29]: below the threshold
- pKd [20, 29]: below the threshold
- pKd [21, 29]: below the threshold
- pKd [22, 29]: below the threshold
- pKd [23, 29]: below the threshold
- pKd [24, 29]: below the threshold
- pKd [25, 29]: below the threshold
- pKd [26, 29]: below the threshold
- pKd [27, 29]: below the threshold

Binder: FHPLGADSQV [SLC2A1, P11166]
- pKd [1, 28]: below the threshold
- pKd [2, 28]: 3.95
- pKd [3, 28]: below the threshold
- pKd [4, 28]: 4.03
- pKd [5, 28]: 4.29
- pKd [6, 28]: below the threshold
- pKd [7, 28]: below the threshold
- pKd [8, 28]: below the threshold
- pKd [9, 28]: below the threshold
- pKd [10, 28]: below the threshold
- pKd [11, 28]: 4.02
- pKd [12, 28]: below the threshold
- pKd [13, 28]: 4.1
- pKd [14, 28]: 4.46
- pKd [15, 28]: below the threshold
- pKd [16, 28]: below the threshold
- pKd [17, 28]: below the threshold
- pKd [18, 28]: below the threshold
- pKd [19, 28]: below the threshold
- pKd [20, 28]: 3.88
- pKd [21, 28]: below the threshold
- pKd [22, 28]: 3.51
- pKd [23, 28]: below the threshold
- pKd [24, 28]: below the threshold
- pKd [25, 28]: below the threshold
- pKd [26, 28]: below the threshold
- pKd [27, 28]: below the threshold
